This passage reports protein production results from a protein production outcome set (Wang et al. 2014).

The data set can be described thus: label from the status in PepcDB records.
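Also: failed if final PepcDB status was selected cloned or expressed and not failed if soluble or beyond.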

Take “MNTLSVLLSLFTVIVVQRVFKKLSISLLSGVIVMILSLKVRNILEIFFWTVSSDSFWSLIVTVFLIYLLSGMMEKSGDYSRFSEEMRTIFSKNVDSFVPALIGLMPMPGGALFTAPIVKNSLPEENSLKLAVKNYWFRHTIEFFWPIYPAVVLVSELSGIHPGKVSLTLFPVFAIAFFLGWFFFNGKQLPCLSKPRSFFNLFPLIPVLGTGVLILLFKVSGWFALLLSTSGYAVFRRRYLLKTLKQVFNKWDVFLVLFFVYIYKVVVEHSGVGEGIAAEFVRWNLSPWILLIFLPLVSGISTGITQAAVGISLPVLMEVFSSKYAVYTYMFAVGGVILSPVHLCVVLSAKFFEVEVFDILKKVFLPLVLTLILGALVLGVIL”: the protein production entry is “failed”.

As to “MNTSEHEREHDHVIEVTDLRRVYGGDFEAVRGITFSVERGELFALLGTNGAGKTSTVELLEGLAAPSGGRVRVLGHDPYEERAAVRPRTGVMLQEGGFPSELTVAETVRMWAGCTSGARPVGEALSLVGLERRPDVRVKQLSGGERRRLDLALALLGRPEVLFLDEPTTGLDAEGRQETWELVRELRDGGTTVLLTTHYLEEAEGLADRLAILHEGRIATAGTPAEVTAAQPSRISFDLPDGYFLGDLPPLADLGVSTHETTGRTVRLRTHELQRTATALLLWAQRAQVELRGLDVRSASLEEAFLRIAREAAGDRPGRPGRTDVSGTTASGKEAVALEHHHHHH”, the protein production entry is “not failed”.

Consider “MNTSSSFKALASPPLISTSRPTTKSFPNPRFTSRFSPKPITCMRDSLNLGSNPKAPSPFSLATVSVDAPLGTKTSDKLRILVSEFRSLTEPIDRVKRLLNYAATLAPLDESARISENRVTGCTTQVWLEIKMDEFGRMRFKADSDSEISKGFCSCLIWILDGAKPEEVMGVRSEDLSEMNVGVHGKEQSRVNTWHNVLMSMQKRTMTLVATDVAHQRGQRPPHQHDLLFKYVNGSYMESSKVHDYSISLLPLYYDFII”, for which the protein production entry is “failed”.

With “MNTTDRDASHTLLEQVNQALQDNTPLRIRGGNSKAFLGREVTGEPLDTRAHRGIVSYDPTELVITARAGTPLSEVLQALDAAGQMLPCEPPDIGAATLGGVVAAGLSGPRRPWSGSVRDFVLGTRLITGLGKHLRFGGEVMKNVAGYDVSRLLTGSFGCLGVLTEVSLKVLPKPRLCSSIALEMDSARALACLAEWGQQPMPISAASHDGRVLRLRLEGGEGSVAAAHERLGGELIDATYWQQLNEQRLPFFFDPGPLWRVCVPADTGVLDLPGEQLIDWAGAQRWLKSDASGDAIRAMTASVGGHATCYSQGRDDSPFHPLTTPLLRYHQALKTRLDPQGIFNPGRLYREL”, the protein production entry is listed as “failed”.

With “MNVAILLAAGKGERMSENVPKQFLEIEGRMLFEYPLSTFLKSEAIDGVVIVTRREWFEVVEKRVFHEKVLGIVEGGDTRSQSVRSALEFLEKFSPSYVLVHDSARPFLRKKHVSEVLRRARETGAATLALKNSDALVRVENDRIEYIPRKGVYRILTPQAFSYEILKKAHENGGEWADDTEPVQKLGVKIALVEGDPLCFKVTFKEDLELARIIAREWERIP”, the protein production result is recorded as “not failed”.

Consider “MNVDILKQRAKAFDYVFDAIVVTDLQGFIIDWNKGSETLYGYSKEQAIGQPVNMLHVPGDTEHITSEVISAVENQGKWTGEIRMLHKDGHIGWIESMCVPIYGENYQMVGALGINRDITLEHHHHHH”, for which the protein production entry is “not failed”.

With “MNVEGMATGGIHMELHCPKCQHVLDQDNGHARCPSCGEFIEMKALCPDCHQPLQVLKACGAVDYFCQHGHGLISKKRVEFVLALEHHHHHH”, the protein production result is recorded as “failed”.

For “MNVKKNIALPAIMVGTFILEGVISLQFGNGLFNDKHLFIPHFLLVMLTIMTCFYKRNTTLVYAFILGLLFDIYYTGVMGIYFAIFPFTVYITDKFMKVLQNNIFLVGLITVFNIILTESLVYAFYYLIGSTTMTIPVFIDQRLWTTILFNLAFFLVIFFPFRLFLDRLVKSE”, the protein production result is on record as “failed”.

Consider “MNVLALDTSQRIRIGLRKGEDLFEISYTGEKKHAEILPVVVKKLLDELDLKVKDLDVVGVGIGPGGLTGLRVGIATVVGLVSPYDIPVAPLNSFEMTAKSCPADGVVLVARRARKGYHYCAVYLKDKGLNPLKEPSVVSDEELEEITKEFSPKIVLKDDLLISPAVLVEESERLFREKKTIHYYEIEPLYLQKSIAELNWEKKKRG”, for which the protein production result is “not failed”.

“MNVLLVSVNREHAPYPVFPLGLACLAGPLRAAGHRLSVLDLCFAADPEEATRQALAEFSPDVVVLSLRNIDNVTYPGSRSYLSGVRDVVAICRERAAVVVGGSGFSLMPREVLAYLGADYGVVGEGEDVLPRLLARIAAGEGGDGLPGVVARENAGFLPPHPVQAIGTPLRGLFQVERYHREGGMANIQTKRGCPFSCIYCTYPLLEGERMRLRPVADIIAEIGDLVDVHGVSYLYFVDDIFNYPLEFALELCRAMSAARLPVAWSAFINPDFLPPQLLDAMLAAGCDALEFGTDSGSPVMLRNLRKSFGIEKVREASRLCREAGVDFAHYILFGGPGETPATIAESFALMDEVAPTAVIAMTGIRIFPGTAIYRQALADGLITPETDLLRPAFYIAPTIADTLCELVREEALKRTNWVVPGLEITANDAMLEALRHFAGPGPLWKMLKLLGRRRGSVPSPWSHSPS”: the protein production result was “failed”.

With “MNVPDMILYNGKITTLDPSQPEVSAIAITDGLITAVGGDELLNSATEKTKKIDLKRKRAIPGLEHHHHHH”, the protein production entry is “not failed”.

Regarding “MNVRNNTKLITINALLLAIGVILHQITPILGLPMQPDFALTMLFIIIILNDNFKITMVSGTLMGIFTAMTTKFPGGQLPNVVDKIFTALIVFLFIALIKKSNILGRLSVEKRNNILIAIVLPLGTLVSGILFLGTAKIIVGLPASFSILFLTVVVPSIALNTVIGLVLYRIVEKSLRRASYSIRG”, the protein production result is “failed”.

Consider “MNVTTTRFGEIAVEEAKIITLPDGMLGFSEKRFVLLTPQNITPFCWLQSVENPELAFVVVDTKECASDYAVKLTAEESEKLCVNDGDEVVLLAVVTMASDPFNITVNLQGPIALNPKRMLAKQIVLEGSRYTTKHPFFDQAARSKAPGKRNASGEVTAA”, for which the protein production entry is listed as “not failed”.

Consider “MNVWQVVGYKHSGKTTLMEKWVAAAVREGWRVGTVKHHGHGGEPARPEGVDSVRHERAGAVATAVEGDGLLQLHLRRPLWRLDDVLALYAPLRLDLVLVEGYKQERHPKVVLVRSEEDWASLQHLANIRAVIAWEPLEGPLAHPVFSLADDDEYIPWLMNEVRTRT”, for which the protein production result is “not failed”.

Consider “MNWAKFRETGSPEDTDMSSTPISSDTTAVSKVIDPNYVLMVADFFKAISPDESCNDFTSFDSFSVLFQNNTRALSIARGRVSCSVTVTPGISNFFKGLHGGAVASIAERVAMACVKTVVSEDKHLFIGELSMSYLSSAPISSELLVEGTVVRTGRNLSVVTVEFKIKETMKVTYLSRATFYHSPISKL”, for which the protein production result is given as “failed”.

“MNWVTHKPTFEFDNFSPFIRANTAWLGHLEFAYDLVRFEKPEILVELGTHMGASFFSFCQGVKDGGLATKCFAVDTWTGDGHTGPYGEGVFHIVDKVVKTSYPNIGNLIKSTFDEAVDQFQDGTINLLHIDGYHTYEAVSHDYKTWLPKLADNGIVLFHDIEVKDRNFGVYKFWDEVKAKYPHFQFQHSYGLGVLFPKGCSDRFKEILKNKEEIQDMYKLEHHHHHH”: the protein production result is “not failed”.

“MNYFATVARGLETLAAQELEQLGAHSVEPGFCGVAFEGDRTLLYRVNLWARLPFRILVDIHEFPCLDAKDLYRGIQTIDWQNYLTPDMTLAVNVTGKNAHLNHSHFTSLQVKNAIVDQQQEKLGERSNVELHEPDVRVNVHIERDFCTVKLDSSGNSLHRRGYRPAVGSAPLKESLAAALIQLSGWKQDQMFYDPLCGSGTLPLEASLKALNIAPGLFRESFGFENWLDFDLVLLEKLLQEAKDSQLDTLPAPIWGSDHDENVIEQAINNAQNCGVDNHVWFSQMELADVVAPADSGILLCNPPYGERLGRDSDLGAFYKLLGDVLKQRFKGWTAFVLSGNKELSQSIGLKSSKRIAVYNGALPCQLMKYELY”: the protein production entry is given as “failed”.

Take “MNYNSIPTEIIDTILAELKIGLTLVNNTGKIIYFNQLAGELLGWDNKLPENTILSCHKKENQPKVIEKLNQPAAMEWHKVIKTQNRFIENAYSPINIPDKFMGAMILTKDVTAREESLEKLKKNAETDALTGLYNRNLFHTVIQSYITESKPYGLIMLDISGLKYINDHFGHEEGDRILKEAAEAIRSSIRDTDFAFRFGGDEFLILTSYQEAVLKTIANRIRSKNKIPTENTPAVLNLSLGYATSLEEKNMEAVLSSADQRMYRDKQLFYLGDGKYFKQ”: the protein production result is on record as “failed”.

For “MNYSKLKSIPIYFSLLAISVSNVGCVQQDVEANLTSKTLSENLDSKALRHKNKEQDIESLLAQLTLEEKISLVHANTKFANAAVERLGIHSMEMSDGPHGVRRQISRDSWKPAGWDDDQATYLPPLTAVAASWDPQMATLHGNVLGSEARHRNKDVILGPGVNLARLPLYGRNFEYLGEDPFLAAKLVVPEIIAIQANDVAATVKHFALNTQELNRHGVDATPDERTLREVYLPAFEAAVKEGNTYAMMGSYNNVYGTNANQNKHLIMDILKGEWGYQGLLMTDWDVDINTYDAAMNGLDLEMGTRAKSYDDYFLAKPLLKMIQSGKVPVAVLDDKVRRILRVQLSIGMMDKQRFSGQRNTQEHRDFSRQIATQGVVLLKNESVASANHTNTVLPLDKNKVKNILVLGPNADKKHGSGGGSSQVKSLWEITPLQGLKDKLGDNVEIQFMRARSQSGVQPIAEDFVKTNNRGTGTPAWRLIEYKTKDRNKKAAHYGWLPESSYNSPLGDVIQHINLKADIMPLASGEHVLKLGGKGNVNLVINGKEVINTTLSGDKTYQHKLTLKQGKKYVFTLGYDGADNVVLGWNAPGSPFSTKDEYLAAAKNADAVIYYAGLSHADDRESKDRSNMVLPNNQDDIISDLIAVNSTTVVFVIGGSAVEMPWAEQANAIVWGWYGGMEAGHSYADILFGDVNPSGKMPITLPKKLTDTAPIVLNDYNEKTSTYPEGVFIGYRWFEQQNIEPLFPFGHGLSYTHFSFGDISLNKDVISAGETITASVKITNTGKVAGAEVVQLYLHDEESSVPRPVKELKGFEKVFLQPGESQTVMLTLTQRDLSFWDVNTKNWLAEQGQFSVHIGSSVNDIKTSTSFSYQ”, the protein production result is “failed”.

For “MNYVKYHLLALLVTLLVAGSFISSEKLSGVVNPFSLTLLRFVIAAFTLLPFVLFKAQYRKGIIRALPRSLIMSVFFSVFFICMFEALKTTTPLNTGTLYTLVPFLTAIFSIFAFKEKITKKRLVVYLIGSAGTSWIIFGGDIEALLAFSLNGGDALFIGGCISMVCYSISMKFLYRGDEIIVIVFCTLFCGALWMLLALLVFNQPLQWHLLKSDLWFHMGYLALFATLASTFIIQKTTVVLGPSKVMAYIYLNPICVAFLMLFIEGKSIPSIVFPGMIISLIATIVLQFQNRNNANK”, the protein production result is listed as “failed”.

For “MPAETNEYLSRFVEYMTGERKSRYTIKEYRFLVDQFLSFMNKKPDEITPMDIERYKNFLAVKKR”, the protein production result is “failed”.

With “MPAFSTRHLGAVAAALALTVASPAATASAAPDAPAGLREVMFVGNNWDGTADVIRSTGDFARIGRIDVVPDKAERMAEINADPIKWIYFQAIRNGVGEGHDQLVDDMYSTPDGTSVVVSRPSFADVVSVDLATGDINWRFPVSGYRSDHMAVSPDGTRVAVSASTSNTVHVLDIRTGEQVGSFGTGDKPHENIFTRDGRYIWNMSIGDVNTALDAPWLDWTKGDRRITVVDAKTYRQVKVIDMRQRLDAIGLGDHSDAVRPAVFSPDESKLYFQVSFFNGFFEYDVAGDRITRTKTLPKNPATSEDRTTWVNDSRHHGLSMSPDGARICVAGTMDDYATVVNRDTLEEGPLVPAAKPYWATVSGDGTHCVVSESGADQVTAIDFATGEKSVSVPVGDHPQRVRIGRVAADWTGPSAG”, the protein production entry is listed as “failed”.

Take “MPAGCESNPRLVGHPFMTTILAIAVFGAVGCVARYLLAGGVYALAGRAFPWGTLAVNVIGAFLIGLIMEAALRTTLMSQELRLGLTIGFLGGFTTFSTFSYETFKLLEDGEFFSASLNVLASVALCLVGTWAGIMAARQL”: the protein production result was “failed”.
